# In US8361442B2, “Oxime conjugates and methods for their formation and use” (The General Hospital Corporation, priority 2002, dated 2013):
# B1: Trypsin: Bovine pancreatic trypsin (EC 3.4.21.4) Type III; DTPA-modified, 111In-labeled for animal studies (protein, UniProt P00760 24-246, looked up)
# Serine protease 1: IVGGYTCGANTVPYQVSLNSGYHFCGGSLINSQWVVSAAHCYKSGIQVRLGEDNINVVEGNEQFISASKSIVHPSYNSNTLNNDIMLIKLKSAASLNSRVASISLPTSCASAGTQCLISGWGNTKSSGTSYPDVLKCLKAPILSDSSCKSAYPGQITSNMFCAGYLEGGKDSCQGDSGGPVVCSGKLQGIVSWGSGCAQKNKPGVYTKVCNYVSWIKQTIASN
# modifications: DTPA-modified, 111In-labeled
# notes: Bovine pancreatic trypsin (EC 3.4.21.4) Type III; DTPA-modified, 111In-labeled for animal studies
# Tests used:
# [1] = design: species or system CD1 mice; settings: mouse, in vivo, iv
# Experimental: For animal studies, protein conjugates were labeled with [^111In] after modification of the trypsin portion of conjugates with DTPA. EDC mediated coupling was carried out in aqueous solution at DTPA/EDC/Trypsin lysine residue ratio 500:50:1 at pH 7.5. The resultant DTPA-labeled conjugates were purified by gel chromatography on Sephadex G-25. DTPA to protein molar ratio, as determined by Cu(II) colorimetric assay at 775 nm was approximately 1:4. Unmodified proteins were labeled analogously.
# Labeling was performed by transchelation from [^111In] citrate. The labeling solution was prepared by mixing carrier-free [^111In] indium chloride in 0.05 M HCl with a 20-fold volume excess of 0.5 M sodium citrate, pH=5.6. The resultant [^111In] indium citrate solution was added to unbuffered solutions of DTP-modified polymers at 0.2 to 1 mCi of [^111In] per 1 mg of dry substance. The labeled conjugates were separated by gel chromatography on Sephadex G-25, with simultaneous media replacement to sterile isotonic saline. […]
# Mice were euthanized at 0.25, 0.5, 1, 2, 4, and 8 hours (n=2). Blood samples and harvested organs (hart, lungs, liver, spleen, kidneys, adrenal glands, stomach, GI, testes, muscle, bone, brain and tail) were analyzed on gamma counter. The amount of radioactivity per organ was expressed as a percentage of the injected dose per gram tissue.
# [2] = design: species or system mice and rats; settings: in vivo
# Text: Biokinetics and biodistributions were studied by blood and tissue sampling in rats, mice and rabbits using ^111In labeled preparations at clinically relevant doses. Fast initial stages (if present) were studied by dynamic gamma-scintigraphy in anesthetized animals.
# Biokinetics of unmodified polyals of various molecular weights were studied in normal mice, rats and rabbits. Biokinetics of model nanocarriers (PHF graft copolymers) and polyal-modified liposomes were studied in rats. Biokinetics of formylpeptide conjugates were studied in normal rabbits and rabbits with focal bacterial inflammation. Protein conjugates were studied in mice and rats.
molecule,measurement,setting,value
B1,clearance of activity from blood within 15 minutes after administration,[1],80%
same,half-life of secondary monoexponential clearance,[1],4 ± 0.8 h
same,blood half-life of unmodified protein,[2],7 min
